In this assay the target is Mcm2-7 hexamer (S. cerevisiae) (UniProt P29469). The assay is described as follows: cryo-EM structure.

What is called stoichiometry N is a count of units in the complex or per binding partner.

In turn, “Mcm2-7 hexamer, P29469;P24279;P30665;P29496;P53091;P38132” returned a stoichiometry N of 2 hexamers.

These data come from paper PMC5692578.
